# Test results as given in patent US20230257448A1 (TWIST BIOSCIENCE, published 2023).
# Biological target: T1, S1 monomer of SARS-CoV-2 Omicron (SARS-CoV-2, UniProt P0DTC2 16-685)
# T1 construct: domain: S1
# Test: SPR (Carterra LSA, antibody amine-coupled to the chip, spike protein as analyte)
binder,measurement,value
3-31 (Fc fusion) EVQLVESGGGLVQPGGSLRLSCAASGSTFSINAMGWFRQAPGKEREFVAGITSSGGYTNYADSVKGRFTISADNSKNTAYLQMNSLKPEDTAVYYCAADGVPEYSDYASGPVWGQGTLVTVSS,binding result,no binding
